From patent CN115594758A (NANJING JINGZHUN BIOTECHNOLOGY CO LTD, dated 2023) come the findings set out here.

In the test the target is SARS-CoV-2假病毒 (病毒包膜糖蛋白 on MLV pseudovirus) (SARS-CoV-2, UniProt P0DTC2 14-1273). As to the kind of experiment: cell-based or functional assay.

B1: 纳米抗体SA4 (VHH)
VHH: QVQLQESGGGLVQPGGSLRLSCAASGSFFEFGTVGWFRQAPGKQRELVSRITGNDHRYYADSVKGRFTISRDNDETTVYLQMDSLKPEDTAIYHCNILEGQRWSNYWGQGTQVTVSH
B1: the “假病毒中和实验 IC50 (GFP by flow cytometry, VeroE6-hACE2 cells)” value worked out at 12.7 nM.
